B1: FLAG®-tagged Atr-2 protein (73 kDa Atr-2 truncated protein encoded by pCIneoFLAGATR2) (protein)
chain: MLVAELRRVTVLWDELWLGVLLQQHMYVLRRIQQLEDEVKRVQNNNTLRKEEKIAIMREKHTALMKPIVFALEHVRSITAAPAETPHEKWFQDNYGDAIENALEKLKTPLNPAKPGSSWIPFKEIMLSLQQRAQKRASYILRLEEISPWLAAMTNTEIALPGEVSARDTVTIHSVGGTITILPTKTKPKKLLFLGSDGKSYPYLFKGLEDLHLDERIMQFLSIVNTMFATINRQETPRFHARHYSVTPLGTRSGLIQWVDGATPLFGLYKRWQQREAALQAQKAQDSYQTPQNPGIVPRPSELYYSKIGPALKTVGLSLDVSRRDWPLHVMKAVLEELMEATPPNLLAKELWSSCTTPDEWWRVTQSYARSTAVMSMVGYIIGLGDRHLDNVLIDMTTGEVVHIDYNVCFEKGKSLRVPEKVPFRMTQNIETALGVTGVEGVFRLSCEQVLHIMRRGRETLLTLLEAFVYDPLVDWTAGGEAGFAGAVYGGGGQQAESKQSKREMEREITRSLFSSRVAEIKVNWFKNRDEMLVVLPKLDGSLDEYLSLQEQLTDVEKLQGKLLEEIEFLEGAEGVDHPSHTLQHRYSEHTQLQTQQRAVQEAIQVKLNEFEQWITHYQAAFNNLEATQLASLLQEISTQMDLGPPSYVPA
Consider B1, for which the “kinase activity (32P-ATP incorporation, P81 paper, Cerenkov radiation)” value (“kinase activity” for short) was “able to phosphorylate the Atr-2 protein itself”. In the data set with histone H1, the “kinase activity” value is “did not phosphorylate PHAS-1 or histone H1”. Besides, in the data set with PHAS-1, the “kinase activity” value was “did not phosphorylate PHAS-1 or histone H1”. In addition, the “kinase activity” value in the data set with myelin basic protein is “able to phosphorylate the Atr-2 protein itself and the exogenous myelin basic protein substrate”.

(Values after patent publication US20030023055.)
